The text below walks through data of US20160237160A1, “ANTI-TWEAKR ANTIBODIES AND USES THEREOF” (BAYER PHARMA AKTIENGESELLSCHAFT, priority 2013, published 2016).

The target in experiment [1] is T1, TWEAKR(28-68)-HIS (TPP-1984) (Homo sapiens, UniProt Q9NP84).
T1 construct: Extracellular domain with C-terminal truncation (28-68) fused to HIS6 tag; made in house
Kind of experiment: ELISA with C-terminally truncated TWEAKR ectodomain. In kind it is binding. The settings on record: coating 1 μg/ml; 0.08 and 0.3 μg/ml biotinylated IgG. As for the experimental part:
(§1) To analyze for binding, 1 μg/ml of the respective dimeric TWEAKR-Fc construct were coated and, 0.3 μg/ml and 0.08 μg/ml of biotinylated IgG were used as soluble binding partner. Detection was done with Streptavidin-HRP and Amplex-Red substrate. IgGs were biotinylated using an approximately 2-fold molar excess of biotin-LC-NHS (Pierce; Cat. No. 21347) according to manufacturer's instructions and desalted using Zeba desalting columns (Pierce; Cat. No. 89889).
Background: An ELISA detects its analyte on a solid surface through an enzyme-linked reagent.

Experiment [2] has as its target T2, TWEAKR-Fc WT (TPP-599) (Homo sapiens, UniProt Q9NP84).
T2 construct: TPP-599; HUMAN-TNFRSF12Aaa28-80-hIgG1-Fc; 138; made in house
Kind of experiment: ELISA mutein binding. The settings on record: coating 62 ng/ml; biotinylated IgG from 100 nM; read-out: IC50 of antibody binding, WT. As for the experimental part:
(§2) Therefore, the full ectodomain (amino acids 28-80) with the following single amino acid substitutions were expressed and purified as Fc fusion proteins: T33Q; S40R; W42A; M50A; R56P; H60K; L65Q.
(§3) To collect dose-response data, the different TWEAKR-Fc muteins were coated with a low concentration (62 ng/ml) in a 384-well Maxisorb ELISA plate and a serial 2fold dilution of biotinylated IgG starting with a concentration of 100 nM was used as soluble binding partner. Detection was done with Streptavidin-HRP and Amplex Red.
(§4) IgGs were biotinylated using an approximately 2-fold molar excess of biotin-LC-NHS (Pierce; Cat. No. 21347) according to manufacturer's instructions and desalted using Zeba desalting columns (Pierce; Cat. No. 89889). The dose-response data were fitted and IC50s determined.

For experiment [3], the target named is T3, TWEAKR-Fc mutein H60K (TPP-1989) (Homo sapiens, UniProt Q9NP84, H60K).
T3 construct: the full ectodomain (amino acids 28-80) with the following single amino acid substitutions; made in house
The experiment can be described thus: ELISA mutein binding. Conditions: coating 62 ng/ml; biotinylated IgG from 100 nM; read-out: IC50 of antibody binding, H60K. As for the experimental part:
as §2, §3, §4

Experiment [4] concerns the target T4, TWEAKR-Fc mutein L65Q (TPP-1990) (Homo sapiens, UniProt Q9NP84, L65Q).
T4 construct: the full ectodomain (amino acids 28-80) with the following single amino acid substitutions; made in house
The experiment can be described thus: ELISA mutein binding. The settings on record: coating 62 ng/ml; biotinylated IgG from 100 nM; read-out: IC50 of antibody binding, L65Q. As for the experimental part: as §2, §3, §4

Experiment [5] concerns the target T5, TWEAKR-Fc mutein W42A (TPP-1985) (Homo sapiens, UniProt Q9NP84, W42A).
T5 construct: the full ectodomain (amino acids 28-80) with the following single amino acid substitutions; made in house
Kind of experiment: ELISA mutein binding. The settings on record: coating 62 ng/ml; biotinylated IgG from 100 nM; read-out: IC50 of antibody binding, W42A. As for the experimental part:
as §2, §3, §4

Experiment [6] concerns the target T6, TWEAKR-Fc mutein T33Q (TPP-1986) (Homo sapiens, UniProt Q9NP84, T33Q).
T6 construct: the full ectodomain (amino acids 28-80) with the following single amino acid substitutions; made in house
Kind of experiment: ELISA mutein binding. The settings on record: coating 62 ng/ml; biotinylated IgG from 100 nM; read-out: IC50 of antibody binding, T33Q. The protocol:
as §2, §3, §4

Experiment [7] has as its target T7, TWEAKR-Fc mutein M50A (TPP-1988) (Homo sapiens, UniProt Q9NP84, M50A).
T7 construct: the full ectodomain (amino acids 28-80) with the following single amino acid substitutions; made in house
Kind of experiment: ELISA mutein binding. Conditions: coating 62 ng/ml; biotinylated IgG from 100 nM; read-out: IC50 of antibody binding, M50A. The protocol:
as §2, §3, §4

The target in experiment [8] is T8, TWEAKR-Fc mutein S40R (TPP-1987) (Homo sapiens, UniProt Q9NP84, S40R).
T8 construct: the full ectodomain (amino acids 28-80) with the following single amino acid substitutions; made in house
The experiment can be described thus: ELISA mutein binding. Conditions: coating 62 ng/ml; biotinylated IgG from 100 nM; read-out: IC50 of antibody binding, S40R. As for the experimental part:
as §2, §3, §4

Experiment [9] deals with T9, TWEAKR-Fc mutein R56P (TPP-2683) (Homo sapiens, UniProt Q9NP84, R56P).
T9 construct: the full ectodomain (amino acids 28-80) with the following single amino acid substitutions; made in house
Kind of experiment: ELISA mutein binding. Conditions: coating 62 ng/ml; biotinylated IgG from 100 nM; read-out: IC50 of antibody binding, R56P. As for the experimental part: as §2, §3, §4

In experiment [10] the target is T10, TWEAKR-Fc fusion protein (TPP-2202), aa 28-80 (Homo sapiens, UniProt Q9NP84).
T10 construct: the full ectodomain 28-80 including the N- and C-terminus; made in house
The experiment can be described thus: ELISA with TWEAKR full ectodomain. In kind it is binding. The settings on record: coating 1 μg/ml; 0.08 and 0.3 μg/ml biotinylated IgG.
From the text: (§5) In a first approach to characterize the binding epitope of the aforementioned antibodies, a N- and C-terminal truncation mutant of the TWEAKR ectodomain was generated and tested for its ability to bind to the different anti-TWEAKR antibodies. N-terminally, amino acids 28 to 33 and C-terminally amino acids 69 to 80 were deleted, thus the cysteine rich domain with disulfide bridges between Cys36-Cys49, Cys52-Cys67 and Cys55-Cys64 remains intact (compare FIG. 2). Both constructs, the full ectodomain 28-80 including the N- and C-terminus and the truncated ectodomain 34-68 were expressed and purified as Fc fusion proteins TPP-2202 and TPP-2203, respectively.
as §1

Experiment [11] addresses T11, TWEAKR protein (TPP-2305) (Homo sapiens, UniProt Q9NP84).
T11 construct: TPP-2305; hTNFRSF12Aaa28-80; Human; 30R-AT080; 168; purchased Fitzgerald Inc 30R-AT080
Kind of experiment: Biacore monovalent KD with TWEAKR protein. In kind it is binding. Conditions: first order 1:1 binding model. As for the experimental part:
Binding affinities of anti-TWEAKR antibodies were determined by surface plasmon resonance analysis on a Biacore T100 instrument (GE Healthcare Biacore, Inc.). Antibodies were immobilized onto a CM5 sensor chip through an indirect capturing reagent, anti-human IgG(Fc). Reagents from the “Human Antibody Capture Kit” (BR-1008-39, GE Healthcare Biacore, Inc.) were used as described by the manufacturer. Anti-TWEAKR antibodies were injected at a concentration of 10 μg/ml at 10 μl/min for 10 sec.
Sensorgrams were generated after in-line reference cell correction followed by buffer sample subtraction. The dissociation equilibrium constant (KD) was calculated based on the ratio of association (kon) and dissociation rated (koff) constants, obtained by fitting sensorgrams with a first order 1:1 binding model.
In general terms: Surface plasmon resonance follows binding to a sensor surface in real time, without labels.

The target of experiment [12] is T12, TWEAKR(34-68)-Fc fusion protein (TPP-2203) (Homo sapiens, UniProt Q9NP84).
T12 construct: the truncated ectodomain 34-68 were expressed and purified as Fc fusion proteins; made in house
Kind of experiment: ELISA with TWEAKR cysteine rich domain. In kind it is binding. Conditions: coating 1 μg/ml; 0.08 and 0.3 μg/ml biotinylated IgG.
From the text: as §5, §1

Where only a bound is given, the exact number is not on record here.

B1: P3G5(TPP-2195): reference anti-TWEAKR antibody, murine IgG2a, from WO2009/140177; SEQ ID NO 121/122 (protein)
light: DIVLTQSPASLAVSLGQRATISCRANKSVSTSSYSYMHWYQQKPGQPPKLLIKYASNLESGVPARFSGSGSGTDFILNIHPVEEEDAATYYCQHSRELPFTFGSGTKLEIKRADAAPTVSIFPPSSEQLTSGGASVVCFLNNFYPKDINVKWKIDGSERQNGVLNSWTDQDSKDSTYSMSSTLTLTKDEYERHNSYTCEATHKTSTSPIVKSFNRNEC
heavy: QVQLQQSGPEVVRPGVSVKISCKGSGYTFTDYGIHWVKQSHAKSLEWIGVISTYNGYTNYNQKFKGKATMTVDKSSSTAYMELARLTSEDSAIYYCARAYYGNLYYAMDYWGQGTSVTVSSAKTTAPSVYPLAPVCGDTTGSSVTLGCLVKGYFPEPVTLTWNSGSLSSGVHTFPAVLQSDLYTLSSSVTVTSSTWPSQSITCNVAHPASSTKVDKKIEPRGPTIKPCPPCKCPAPNLLGGPSVFIFPPKIKDVLMISLSPIVTCVVVDVSEDDPDVQISWFVNNVEVHTAQTQTHREDYNSTLRVVSALPIQHQDWMSGKEFKCKVNNKDLPAPIERTISKPKGSVRAPQVYVLPPPEEEMTKKQVTLTCMVTDFMPEDIYVEWTNNGKTELNYKNTEPVLDSDGSYFMYSKLRVEKKNWVERNSYSCSVVHEGLHNHHTTKSFSRTPG
modifications: Mus Musculus
As a reminder, the IC50 is the concentration that inhibits the measured activity by half. In the case of B1, in experiment [1], the “ELISA binding to C-terminally truncated ectodomain (28-68)” value is listed as “impaired binding”. In addition, the IC50 in experiment [2] is 0.001 to 0.15 nM; in experiment [3], 0.001 to 0.15 nM; in [4], 0.001 to 0.15 nM; in experiment [5] it was over 50 nM; in experiment [6], 0.001 to 0.15 nM; in experiment [7], 0.001 to 0.15 nM. The IC50 in [8] and in experiment [9] was 0.001 to 0.15 nM each time. Moreover, in experiment [10], the “ELISA binding to full ectodomain (28-80)” value was “saturated binding”. The same molecule displayed a ka in experiment [11] of 2.31e+06 M⁻¹ s⁻¹. The kd in [11] worked out at 0.00122 s⁻¹. Besides, the “ELISA binding to N- and C-terminally truncated construct (34-68)” value in [12] was “impaired binding”.
